Reference: publication PMC7271899, “Bayesian modeling reveals metabolite‐dependent ultrasensitivity in the cyanobacterial circadian clock” (Molecular Systems Biology, 2020)

T1: KaiA (Synechococcus elongatus, UniProt Q79PF6 1-284)
T1 construct: KaiA, circadian clock protein of Synechococcus elongatus; source: expressed and purified as previously described (Phong et al, 2013); anion exchange on HiTrap Q columns
T1 sequence (looked up): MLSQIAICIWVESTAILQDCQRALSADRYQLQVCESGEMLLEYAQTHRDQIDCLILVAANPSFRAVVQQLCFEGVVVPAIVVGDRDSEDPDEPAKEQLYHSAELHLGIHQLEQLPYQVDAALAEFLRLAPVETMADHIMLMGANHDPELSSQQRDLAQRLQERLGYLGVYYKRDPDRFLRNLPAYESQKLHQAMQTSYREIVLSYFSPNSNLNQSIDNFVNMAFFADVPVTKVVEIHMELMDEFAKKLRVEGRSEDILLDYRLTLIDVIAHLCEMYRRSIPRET

B1: KaiB-FLAG (natural protein, Synechococcus elongatus, UniProt Q79PF5 1-102, looked up)
chain: MSPRKTYILKLYVAGNTPNSVRALKTLKNILEVEFQGVYALKVIDVLKNPQLAEEDKILATPTLAKVLPLPVRRIIGDLSDREKVLIGLDLLYGELQDSDDF
notes: KaiB, circadian clock protein of Synechococcus elongatus; also called FLAG-tagged KaiB; source: expressed and purified as previously described (Phong et al, 2013); anion exchange on HiTrap Q columns
B2: C-terminal domain of KaiA (residues 181-284) (domain or fragment, Synechococcus elongatus, UniProt Q79PF6 181-284, looked up)
chain: NLPAYESQKLHQAMQTSYREIVLSYFSPNSNLNQSIDNFVNMAFFADVPVTKVVEIHMELMDEFAKKLRVEGRSEDILLDYRLTLIDVIAHLCEMYRRSIPRET
notes: KaiA of Synechococcus elongatus, C-terminal domain, residues 181-284; Uniformly 15N labelled, grown in deuterated water, for NMR; Purified as described in Chang et al, 2011, 2012; Tseng et al, 2014; also called C-terminal KaiA; source: E. coli BL21(DE3), M9 media with 15N NH4Cl in 98% D2O, purified (Ni-NTA, SEC on Superdex 75)

Key:
KaiA = molecular target: T1, KaiA; assay: co-IP; in vitro KaiABC clock reaction of purified proteins (KaiC present), time course; KaiB-FLAG precipitated with monoclonal anti-FLAG M2 antibody, eluted with 3xFLAG peptide; KaiA left in the supernatant quantified by SDS-PAGE (SYPRO Ruby) against 1.5 uM GFP as internal standard; settings: both partners purified
[1] = molecular target: the molecule itself; assay: SEC; Superdex 75 1660 prep grade column, step of the purification after Ni-NTA

| Binder | binding result (KaiA) | stoichiometry N [1] |
| --- | --- | --- |
| B1 | binds | – |
| B2 | – | 2 |
